Experimental data as given in article PMC11477141, “Chemokine Receptor N-Terminus Charge Dictates Reliance on Post-Translational Modifications for Effective Ligand Capture and Following Boosting by Defense Peptides” (International Journal of Molecular Sciences, 2024).
Changes are numbered by the printed parent chain. Names and notes keep the numbering of the source. Blank lines part the entries; values can stand above or below the molecule they belong to. Where no end group is shown, it is not given here.

Key:
[1] = tested on: CCR5-1like; assay: BRET CAMYEL Gαi signaling via chimeric receptor M1-CCR5-1like; type: cell-based, human; conditions: HEK293 DeltaSia and sC, n = 3
Text: To finally determine if the lack of acidic amino acids in the CCR5 N-terminus can explain the dependency of this receptor on O-glycosylation for effective ligand interaction, we constructed a CCR5 receptor chimera, where the most acidic N-terminal region of CCR1 was inserted into the CCR5 N-terminus, creating the chimeric receptor CCR5-1like (Figure 7).
Figure 7 Receptor N-termini representing CCR1, CCR5, and the chimeric CCR5-1like. The CCR1 N-terminus contains a lot of acidic amino acids (outlined in red) in the form of aspartic acid (D) and glutamic acid (E), whereas CCR5 only contains a few. The chimeric receptor CCR5-1like that contains part of the CCR1 receptor N-terminus (ETTTDYDE) resembles CCR1 with regard to acidic amino acid content and spacing, but they are not the same.
(§1) BRET measurements of Gαi signaling and β-arrestin recruitment: Cells were seeded in 6-well plates (500,000 cells/well) and transiently transfected the following day. For BRET measurements of Gαi signaling, cells were transfected with vectors encoding the human chemokine receptors as indicated (160 ng/well) and the CAMYEL sensor (cAMP sensor, YFP-Epac-RLuc) (840 ng/well) using Lipofectamine (6 µL/well). Briefly, DNA was dissolved in 125 µL OPTI-MEM and Lipofectamine was dissolved in 125 µL OPTI-MEM. The DNA and Lipofectamine solutions were combined into a transfection mixture. The transfection mixture was added dropwise to cells incubated in OPTI-MEM (1 mL/well). Transfections were terminated after 5 h by adding 1 mL of fresh culture medium on top of the OPTI-MEM. The following day the cells were loosened from the plates in PBS with 5 mM glucose and subsequently aliquoted in white 96-well iso plates (~25,000 cells/well). When using C21TP variants and defense peptides (hBD2 and histatin), these were added to a final concentration of 10 μM/well, while an equal amount of PBS was added to control cells. The bioluminescence substrate coelenterazine was added to a final conc. of 5 µM. After 10 min, varying ligand concentrations were added. For BRET measurements of Gαi signaling, forskolin was added 5 min after the addition of the ligand, to a final conc. of 5 µM. The plates were kept in the dark at all times. A Perkin Elmer Envision machine was used for measuring the emission signals at 530 and 480 nm. The BRET signal is determined as the ratio eYFP (530 nm)/Rluc (480 nm).
(§2) BRET principle with CAMYEL: For quantification of signaling initiated immediately downstream of receptor activation, we used the cAMP binding CAMYEL sensor to perform bioluminescence resonance energy transfer (BRET) based assays. In this assay we measure changes in intracellular cAMP levels in response to receptor activation. Activation of chemokine receptors lead to a decrease in cAMP through inhibition of adenylate cyclase (AC). In the current setup we initially add forskolin that stimulates AC directly to induce an increase in intracellular cAMP, and we then measure the ability of a ligand (chemokine) to counteract the forskolin-induced increase in cAMP. The cAMP sensor (CAMYEL cAMP sensor, YFP-Epac-RLuc) carries the donor Renilla luciferase (Rluc) and the acceptor YFP. Coelenterazine is a substrate for Rluc that will emit light at around 475 nm upon enzymatic cleavage catalyzed by Rluc. When Rluc and YFP are in close proximity, the energy from the emitted light from coelenterazine can be transferred to YFP, resulting in an excitation of YFP, leading to a BRET signal around 525 nm. […]

[2] = molecular target: T1, CCR5 (Homo sapiens, UniProt P51681); assay: BRET CAMYEL cAMP sensor assay of ligand-induced Gαi signaling via CCR5; type: cell-based; conditions: n = 3; for Gαi signaling via CCR5 in DeltaSia cells compared to WT cells: HEK293 DeltaSia (ST3GAL1/2 KO); for Gαi signaling via CCR5 in sC cells compared to WT cells: HEK293 sC (C1GALT1 KO); for Gαi signaling via M1-CCR5 in DeltaSia and sC cells compared to WT cells: M1-tagged CCR5, HEK293 DeltaSia and sC; for Gαi signaling via CCR5 in DeltaSia and sC cells: HEK293 DeltaSia and sC, CCL5 oligomerization variants experiment; for Gαi signaling via CCR5 compared to WT CCL5: HEK293 WT cells
T1 construct: expressed in transfected cells; host or cells: CHO-K1, CHO-pgsB618 (GAG-minus), HEK293 WT / DeltaSia / sC
T1 sequence (P51681 whole entry): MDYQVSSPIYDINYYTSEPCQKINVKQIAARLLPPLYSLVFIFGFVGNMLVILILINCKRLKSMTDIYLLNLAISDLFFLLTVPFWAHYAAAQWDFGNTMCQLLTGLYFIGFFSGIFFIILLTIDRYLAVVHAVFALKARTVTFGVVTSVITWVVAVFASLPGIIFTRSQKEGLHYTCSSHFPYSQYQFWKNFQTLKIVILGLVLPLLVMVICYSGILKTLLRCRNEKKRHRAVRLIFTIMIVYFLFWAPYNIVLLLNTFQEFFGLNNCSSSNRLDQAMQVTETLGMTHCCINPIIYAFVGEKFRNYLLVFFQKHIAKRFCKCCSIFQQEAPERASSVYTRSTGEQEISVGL
Experimental: (§3) For quantification of signaling initiated immediate downstream of receptor activation, we used the cAMP binding CAMYEL sensor to perform bioluminescence resonance energy transfer (BRET)-based assays. Shortly, in this assay increased receptor activation leads to an increase in BRET ratio. For detailed information see the Materials and Methods section.
(§4) In signaling assays testing the boosting ability of basic peptides, transfected cells were aliquoted into 96-well plates in the presence of 10 µM peptide or PBS vehicle. After R-Luc substrate addition, chemokines were added to reach final concentrations ranging from 0–100 nM (0, 0.1, 1, 10, and 100 nM) and forskolin was applied before reading emission at 475 and 525 nm.
as §1
as §2, with “nm. EPAC is a cAMP binding protein that changes conformation upon cAMP binding. During low cAMP concentrations, Rluc and YFP are near each other, and a strong BRET signal at 525 nm is obtained. When cAMP levels increase, cAMP will bind to EPAC, creating a conformational change, separating Rluc and YFP, reducing the BRET ratio, and increasing the emission from Rluc at 475 nm. Thus, by measuring the ratio between the cAMP-bound (475 nm) and the cAMP-free (525 nm) state of CAMYEL we obtain a measure of receptor activation.” for “nm.”

[3] = molecular target: T2, CCR1 (Homo sapiens, UniProt P32246); assay: BRET CAMYEL cAMP sensor assay of ligand-induced Gαi signaling via CCR1; type: cell-based; conditions: n = 3; for boosting of CCL5-induced Gαi signaling via CCR1 / boosting of CCL7-induced Gαi signaling via CCR1 / effect on CCL3-induced Gαi signaling via CCR1: CHO-K1 cells, 10 µM peptide, chemokine 0-100 nM; for Gαi signaling via CCR1 in DeltaSia and sC cells: CCL5 oligomerization variants experiment; for Gαi signaling via CCR1 compared to WT CCL5: HEK293 WT cells
T2 construct: expressed in transfected cells; host or cells: CHO-K1, CHO-pgsB618 (GAG-minus), HEK293 WT / DeltaSia / sC
T2 sequence (P32246 1-355): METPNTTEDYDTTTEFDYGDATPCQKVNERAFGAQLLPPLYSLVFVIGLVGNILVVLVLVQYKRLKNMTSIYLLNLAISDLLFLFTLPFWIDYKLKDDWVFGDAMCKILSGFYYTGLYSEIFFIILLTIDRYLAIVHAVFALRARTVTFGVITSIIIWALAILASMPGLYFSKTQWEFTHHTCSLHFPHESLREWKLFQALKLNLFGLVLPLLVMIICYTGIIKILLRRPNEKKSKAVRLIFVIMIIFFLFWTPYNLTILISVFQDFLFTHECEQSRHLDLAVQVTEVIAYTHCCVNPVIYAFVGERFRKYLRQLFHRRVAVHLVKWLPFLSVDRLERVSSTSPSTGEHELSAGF
Experimental: as §3, §4, §1
as §2, with “nm. EPAC is a cAMP binding protein that changes conformation upon cAMP binding. During low cAMP concentrations, Rluc and YFP are near each other, and a strong BRET signal at 525 nm is obtained. When cAMP levels increase, cAMP will bind to EPAC, creating a conformational change, separating Rluc and YFP, reducing the BRET ratio, and increasing the emission from Rluc at 475 nm. Thus, by measuring the ratio between the cAMP-bound (475 nm) and the cAMP-free (525 nm) state of CAMYEL we obtain a measure of receptor activation.” for “nm.”

[4] = tested on: CCR2; conditions: cited from earlier work
Text: The reliance on electrostatic interactions between basic amino acids in the chemokine and acidic regions in the receptor N-terminus for chemokine receptor binding is illustrated by a study carried out by Hemmerich et al.. To investigate the influence of charge, hydrophobicity, and aromaticity on binding of CCL2 to its cognate receptor CCR2, this group substituted all surface-exposed residues on CCL2 by alanine. […] In contr ...

[5] = tested on: naked CCR5 N-terminus; assay: Fluorescence polarization binding to FAM-labeled CCR5 N-terminal peptide; set-up: species or system human
Experimental: (§5) Fluorescence polarization (FP) assay: The carboxyfluorescein (FAM)-labeled peptides representing the CCR1 and CCR5 N-termini functioned as the probes for quantifying the interaction between the receptor N-terminus and C21TP^81-111. The probe was diluted in FP buffer (1:3, PBS:MilliQ) and 10 µL was added to a final concentration of 250 nM per well in a black 384-well plate (Corning). The C21TP^81-111 peptide (2 mM) was diluted using a two-fold dilution series; 30 µL of the peptide was added to each well to final concentrations ranging from 12.21 nM to 100 µM. Blanks containing 10 µL probe and 30 µL FP buffer were included. The plate was spun down at 1000 rpm for 1 min and the FP signal was measured on a Flex station using SoftMax Pro software 7.0. Each experiment was conducted in triplicate. The binding curves were generated by plotting the FP signal, expressed as millipolarization units (mP), against C21TP^81-111 concentration. The dissociation constant (Kd) value was calculated using GraphPad Prism 9.
(§6) Probes: • CCR1: (5,6-FAM)-[…], • CCR5: (5,6-FAM)-ADYQVSSPIYDINYYTSEP.

[6] = molecular target: naked CCR1 N-terminus (Homo sapiens, UniProt P32246); assay: Fluorescence polarization binding to FAM-labeled CCR1 N-terminal peptide; conditions: FAM-labeled CCR1 N-terminal peptide
Sequence of naked CCR1 N-terminus (P32246 with tags, fused parts or gaps limits assumed): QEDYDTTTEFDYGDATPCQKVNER
Experimental: as §5, §6

Gαi signaling via CCR5 in DeltaSia cells compared to WT cells [2]: drastically reduced
Gαi signaling via CCR5 in sC cells compared to WT cells [2]: drastically reduced
Gαi signaling via M1-CCR5 in DeltaSia and sC cells compared to WT cells [2]: drastically reduced
Molecule: CCL3: human chemokine from Peprotech, overall acidic
Gαi signaling via M1-CCR5-1like in DeltaSia and sC cells compared to WT cells [1]: persists in DeltaSia and sC to almost the same high level as observed in WT cells
Gαi signaling via CCR1 in DeltaSia and sC cells compared to WT cells ([3]; HEK293 DeltaSia and sC): persists in DeltaSia and sC to almost the same high level as observed in WT cells

binding to the naked CCR5 N-terminus [5]: neither of the HDPs bound
binding to the naked CCR1 N-terminus [6]: bind in a dose-dependent manner
effect on CCL3-induced Gαi signaling via CCR1 [3]: not affected
Molecule: histatin1: human host defense peptide, less basic than hBD2, from Caslo (DSHEKRHHGYRRKFHEKHHSHREFPFYGDYGSNYLYDN) [reference compound]
boosting of CCL5-induced Gαi signaling via CCR1 [3]: also boosted the potency of both these chemokines, although to a lesser extent
boosting of CCL7-induced Gαi signaling via CCR1 [3]: also boosted the potency of both these chemokines, although to a lesser extent

binding to the naked CCR5 N-terminus [5]: neither of the HDPs bound
binding to the naked CCR1 N-terminus [6]: bind in a dose-dependent manner
effect on CCL3-induced Gαi signaling via CCR1 [3]: not affected
Molecule: human beta defensin 2 (GIGDPVTCLKSGAICHPVFCPRRYKQIGTCGLPGTKCCKKP; ends and bridges not checked; cysteine pairing not given here) [hBD2, human anti-microbial / host defense peptide, from Caslo, reference compound]
boosting of CCL5-induced Gαi signaling via CCR1 [3]: as efficient in boosting signaling via CCR1 by CCL5 and CCL7 as C21TP^81-111
boosting of CCL7-induced Gαi signaling via CCR1 [3]: as efficient in boosting signaling via CCR1 by CCL5 and CCL7 as C21TP^81-111

Gαi signaling via CCR5 in DeltaSia and sC cells [2]: very low
Gαi signaling via CCR5 compared to WT CCL5 [2]: WT-like signaling
Gαi signaling via CCR1 in DeltaSia and sC cells ([3]; HEK293 DeltaSia and sC): remains high
Gαi signaling via CCR1 compared to WT CCL5 [3]: WT-like signaling
B2: E66A: mutant version of CCL5, obligate dimer, expressed in E. coli (protein, UniProt P13501 24-91, looked up, variant E66A)
C-C motif chemokine 5: SPYSSDTTPCCFAYIARPLPRAHIKEYFYTSGKCSNPAVVFVTRKNRQVCANPEKKWVREYINSLAMS
modifications: also: obligate dimer
notes: mutant version of CCL5, obligate dimer, expressed in E. coli

Gαi signaling via CCR5 in DeltaSia cells compared to WT cells [2]: drastically reduced
Gαi signaling via CCR5 in sC cells compared to WT cells [2]: drastically reduced
Gαi signaling via M1-CCR5 in DeltaSia and sC cells compared to WT cells [2]: drastically reduced
B3: CCL8: human chemokine from Peprotech (protein, UniProt P80075 24-99, looked up)
C-C motif chemokine 8: QPDSVSIPITCCFNVINRKIPIQRLESYTRITNIQCPKEAVIFKTKRGKEVCADPKERWVRDSMKHLDQIFQNLKP
Gαi signaling via M1-CCR5-1like in DeltaSia and sC cells compared to WT cells [1]: persists in DeltaSia and sC to almost the same high level as observed in WT cells

Further lines, the molecule ahead of its results:

Molecule: K35E: CCL2 with K35 substituted by glutamic acid (literature)
reduction of CCL2 binding to CCR2 by substitution in CCL2 [4]: ≥ 1600 fold

Molecule: R24A: CCL2 with R24A substitution (literature)
reduction of CCL2 binding to CCR2 by substitution in CCL2 [4]: ~ 30 fold

Molecule: R24E: CCL2 with R24 substituted by glutamic acid (literature)
reduction of CCL2 binding to CCR2 by substitution in CCL2 [4]: ≥ 1600 fold

B1: E26A: mutant version of CCL5, obligate tetramer, expressed in E. coli (protein, UniProt P13501 24-91, looked up, variant E26A)
C-C motif chemokine 5: B2 C-C motif chemokine 5 with E26A, A66E
Gαi signaling via CCR5 in DeltaSia and sC cells [2]: very low
Gαi signaling via CCR5 compared to WT CCL5 [2]: WT-like signaling
Gαi signaling via CCR1 in DeltaSia and sC cells ([3]; HEK293 DeltaSia and sC): remains high
Gαi signaling via CCR1 compared to WT CCL5 [3]: WT-like signaling
